Reference: EP1960427B1

Key:
[1] = target: heat-aggregated IgG (HAGG); test: cell-based or functional assay
[2] = target: immune complexes consisting of ovalbumin and anti-ovalbumin antibody (OVA ICs); test: cell-based or functional assay
[3] = target: human IgG monomer (Sandoglobulin, Novartis) (human); test: BIAcore equilibrium binding over immobilised IgG
[4] = target: heat-aggregated IgG (HAGG); test: BIAcore equilibrium binding over immobilised HAGG
[5] = target: dimer-IgG (Wright et al.), small immune complex; test: flow cytometry, inhibition of dimer-IgG binding to human neutrophils
[6] = target: heat-aggregated IgG (HAGG); test: flow cytometry, block of HAGG binding to IIA1.6 cells with human FcγRIIb
[7] = target: heat-aggregated IgG (HAGG); test: BIAcore equilibrium binding over immobilised HAGG; two-binding site model, KD1
[8] = target: heat-aggregated IgG (HAGG); test: BIAcore equilibrium binding over immobilised HAGG; two-binding site model, KD2
[9] = target: dimer-IgG (Wright et al.), small immune complex; test: flow cytometry, inhibition of dimer-IgG binding to human neutrophils from two individuals
[10] = target: human IgG monomer (Sandoglobulin, Novartis) (human); test: BIAcore equilibrium binding over immobilised human IgG monomer; two-binding site model, KD1
[11] = target: human IgG monomer (Sandoglobulin, Novartis) (human); test: BIAcore equilibrium binding over immobilised human IgG monomer; two-binding site model, KD2
[12] = target: human IgG monomer (Sandoglobulin, Novartis) (human); test: BIAcore equilibrium binding, receptor injected over immobilised IgG; single-binding site
[13] = target: heat-aggregated IgG (HAGG); test: BIAcore equilibrium binding, receptor injected over immobilised HAGG; single-binding site

Row | Substance | IC50 of HAGG-induced platelet activation (CD41 and CD62P positive platelets) [1] [µg/mL] | fold potency over rsFcγRIIa monomer, HAGG-induced platelet activation [1] [fold] | IC50 of TNF-α release from MC/9 cells induced by OVA ICs [2] [µg/mL] | fold potency over rsFcγRIIa monomer, TNF-α release from MC/9 cells [2] [fold] | fold greater avidity than the monomeric receptor [3] [fold] | fold lesser KD1 than the KD of monomeric rsFcγRIIa [4] [fold] | IC50 [5] [µg/mL] | fold more active than rsFcγRIIa monomer [5] [fold] | IC50 [6] [µg/mL] | fold more potent than the monomer protein [6] [fold] | Kd [7] [nM] | Kd [8] [nM] | IC50 [9] [µg/mL] | Kd [10] [nM] | Kd [11] [nM] | Kd [12] [nM] | Kd [13] [nM]
1 | recombinant soluble FcγRIIa head to tail homodimer (rsFcγRIIa dimer), construct of Figure 1 (pBAR397/pBAR427) (from UniProt P12318 34-215; P12318 36-215) (receptor) | 3.9 | 5 | 2.1 | 8 | 300 | 300 | 1.1 | 10 | 0.0039 | > 500 | 2.73 | 99 | 0.9 to 1.1 | 3.2 | 100 | – | –
2 | recombinant soluble FcγRIIa monomer (rsFcγRIIa monomer), expressed in HEK 293E cells from pBAR426 (from UniProt P12318 34-217) (receptor) | – | – | – | – | – | – | 10.5 | – | – | – | – | – | – | – | – | 1700 | 1050
3 | rsFcγRIIa monomer (R&D Systems, Cat # 1330-CD/CF) (from UniProt P12318 36-218) (receptor) | 20.9 | – | 17.7 | – | – | – | – | – | 2.08 | – | – | – | – | – | – | – | –
